Results on 3 molecules are retold here after US20260125469A1 (Hoffmann-La Roche, published 2026).

Assay [1] concerns the target T1, Human CD3ε stalk-Fc(knob)-Avi/CD3δ stalk-Fc(hole) (human).
T1 construct: Heterodimer of CD3 delta and CD3 epsilon ectodomains fused to human Fc with knob-into-hole; also called human CD3ε/δ; CD3 antigen
As to the kind of experiment: SPR, TCB captured by anti-PG antibody, antigen as analyte, 25°C. On the technique in general: In SPR one partner is held on a chip, and binding of the other changes the refractive index at the surface.

In assay [2] the target is human CD3 on cells (CD3ε) (human, UniProt P07766 23-207). The assay is described as follows: cell-based or functional assay.
Sequence of human CD3 on cells (CD3ε) (P07766 23-207 limits assumed): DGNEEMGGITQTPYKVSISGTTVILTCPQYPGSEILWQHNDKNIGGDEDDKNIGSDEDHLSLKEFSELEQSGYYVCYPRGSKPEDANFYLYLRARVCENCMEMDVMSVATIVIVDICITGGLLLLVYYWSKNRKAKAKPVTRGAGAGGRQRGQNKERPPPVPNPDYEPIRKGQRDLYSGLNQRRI
Assay [3] concerns the target T1, Human CD3ε stalk-Fc(knob)-Avi/CD3δ …. The assay is described as follows: SPR on immobilized human CD3ε/δ after stress, relative to sample kept at -80°C pH 6. The method in brief:
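TCB antibodies (1.0 mg/ml) were stressed 14 days at 37° C pH 7.4 (PBS) or 40° C pH 6 (His/NaCl), referenced to -80° C pH 6 samples. On biotinylated CD3ε/δ at 25° C, 2 μg/ml was injected 30 s; response 5 s post-injection was normalized to anti-huIgG capture.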

For assay [4] the target is unchanged. As to the kind of experiment: SPR, TCB captured by anti-PG antibody, antigen as analyte, 25°C. The source holds these as a separate data set.
Assay [5] concerns the target T2, Cynomolgus CD3ε stalk-Fc(knob)-Avi/CD3δ stalk-Fc(hole) (cynomolgus).
T2 construct: also called cynomolgus CD3ε/δ
Described as above.

Assay [6] addresses T1, Human CD3ε stalk-Fc(knob)-Avi/CD3δ …. The assay is described as follows: SPR on immobilized human CD3ε/δ after stress, relative to sample kept at -80°C pH 6. The protocol:
In order to assess the effect of the deamidation site removal and its effect on the stability of the antibodies, the optimized anti-CD3 antibodies (in TCB format) were incubated for 14 days at 37° C., pH 7.4 and at 40° C., pH 6 and further analyzed by SPR for their binding capability to human CD3ε/δ. Samples stored at −80° C. pH 6 were used as reference. The reference samples and the samples stressed at 40° C. were in 20 mM His, 140 mM NaCl, pH 6.0, and the samples stressed at 37° C. in PBS, pH 7.4, all at a concentration of 1.0 mg/ml. After the stress period (14 days) samples in PBS were dialyzed back to 20 mM His, 140 mM NaCl, pH 6.0 for further analysis.
(§1) All SPR experiments were performed on a Biacore T200 instrument (GE Healthcare) at 25° C. with HBS-P+ (10 mM HEPES, 150 mM NaCl pH 7.4, 0.05% Surfactant P20) as running and dilution buffer. Biotinylated human CD3ε/δ (see Example 3, SEQ ID NOs 41 and 42) as well as biotinylated anti-huIgG (Capture Select, Thermo Scientific, #7103262100) were immobilized on a Series S Sensor Chip SA (GE Healthcare, #29104992), resulting in surface densities of at least 1000 resonance units (RU). Anti-CD3 antibodies with a concentration of 2 μg/ml were injected for 30 s at a flow rate of 5 μl/min, and dissociation was monitored for 120 s. The surface was regenerated by injecting 10 mM glycine pH 1.5 for 60 s. Bulk refractive index differences were corrected by subtracting blank injections and by subtracting the response obtained from a blank control flow cell. For evaluation, the binding response 5 seconds after injection end was taken. To normalize the binding signal, the CD3 binding was divided by the anti-huIgG response (the signal (RU) obtained upon capture of the CD3 antibody on the immobilized anti-huIgG antibody). The relative binding activity was calculated by referencing each temperature stressed sample to the corresponding, non-stressed sample.
This is another data set of the same source.

The target is the same in assay [7]. As to the kind of experiment: SPR, TCB captured by anti-PG antibody, antigen as analyte, 25°C. An excerpt: (§2) For affinity measurements, TCB molecules were captured on a C1 sensorchip (GE Healthcare) surface with immobilized anti-Fc(P329G) IgG (an antibody that specifically binds human IgG₁ Fc(P329G); “anti-PG antibody”—see WO 2017/072210, incorporated herein by reference). The experimental setup is schematically depicted in FIG. 3. Capture IgG was coupled to the sensorchip surface by direct immobilization of around 400 resonance units (RU) using the standard amine coupling kit (GE Healthcare Life Sciences).
(§3) To analyze the interaction to CD3, TCB molecules were captured for 80 s at 25 nM with a flow rate of 10 μl/min. […] The dissociation was monitored for 800 s.
(§4) Kinetic constants were derived using the Biacore T200 Evaluation Software (GE Healthcare Life Sciences), to fit rate equations for 1:1 Langmuir binding by numerical integration. The half-life (t_{1/2}) of the interaction was calculated using the formula t_{1/2}=ln2/koff.
This is another data set of the same source.

Assay [8] addresses T2, Cynomolgus CD3ε stalk-Fc(knob)-Avi/CD3δ …. Described as above.
From the text: as §2, §3, §4
This is another data set of the same source.

For assay [9], the target named is T1, Human CD3ε stalk-Fc(knob)-Avi/CD3δ …. The assay is described as follows: SPR on immobilized human CD3ε/δ after stress, relative to sample kept at -80°C pH 6. As for the experimental part:
as §1
The experiment was performed as described in Example 4, using the monovalent IgG molecules prepared in Example 19.
The source holds these as a separate data set.

For assay [10] the target is unchanged. The assay is described as follows: SPR, monovalent IgG captured by anti-PG antibody, antigen as analyte, 25°C.
Assay [11] shares this target. The assay is described as above. As for the experimental part:
(§5) SPR experiments were performed as described in Example 3, with the monovalent IgG molecules prepared in Example 19.
(§6) To analyze the interaction to CD3, IgG molecules were captured for 240 s at 50 nM with a flow rate of 5 μl/min. Human and cynomolgus CD3F stalk-Fc(knob)-Avi/CD36-stalk-Fc(hole) were passed at a concentration of 0.061-250 nM with a flow rate of […] through the flow cells for 300 s. The dissociation was monitored for 800 s.
The source holds these as a separate data set.

Assay [12] addresses T2, Cynomolgus CD3ε stalk-Fc(knob)-Avi/CD3δ …. The description is as above. As for the experimental part: as §5, §6

Read-outs that look alike come from different tables or passages of the source.

B1: CEACAM5-TCB, CEACAM5 CD3 variant P033.078 (bispecific antibody, human IgG1, kappa, L234A L235A)
heavy 1: not shown
heavy 2: QVQLVQSGAEVKKPGSSVKVSCKASGFNIKDTYMHWVRQAPGQGLEWMGRIDPANGNSKYVPKFQGRVTITADTSTSTAYMELSSLRSEDTAVYYCAPFGYYVSDYAMAYWGQGTLVTVSSASTKGPSVFPLAPSSKSTSGGTAALGCLVEDYFPEPVTVSWNSGALTSGVHTFPAVLQSSGLYSLSSVVTVPSSSLGTQTYICNVNHKPSNTKVDEKVEPKSCDKTHTCPPCPAPEAAGGPSVFLFPPKPKDTLMISRTPEVTCVVVDVSHEDPEVKFNWYVDGVEVHNAKTKPREEQYNSTYRVVSVLTVLHQDWLNGKEYKCKVSNKALGAPIEKTISKAKGQPREPQVCTLPPSRDELTKNQVSLSCAVKGFYPSDIAVEWESNGQPENNYKTTPPVLDSDGSFFLVSKLTVDKSRWQQGNVFSCSVMHEALHNHYTQKSLSLSP
light 1: EIVLTQSPATLSLSPGERATLSCRAGESVDIFGVGFLHWYQQKPGQAPRLLIYRASNRATGIPARFSGSGSGTDFTLTISSLEPEDFAVYYCQQTNEDPYTFGQGTKLEIKRTVAAPSVFIFPPSDRKLKSGTASVVCLLNNFYPREAKVQWKVDNALQSGNSQESVTEQDSKDSTYSLSSTLTLSKADYEKHKVYACEVTHQGLSSPVTKSFNRGEC
light 2: EVQLLESGGGLVQPGGSLRLSCAASGFTFESYAMNWVRQAPGKGLEWVSRIRSKYNEYATYYADSVKGRFTISRDDSKNTLYLQMNSLRAEDTAVYYCVRASNFPSSFVSYFGYWGQGTLVTVSSASVAAPSVFIFPPSDEQLKSGTASVVCLLNNFYPREAKVQWKVDNALQSGNSQESVTEQDSKDSTYSLSSTLTLSKADYEKHKVYACEVTHQGLSSPVTKSFNRGEC
notes: 2+1 IgG CrossFab, inverted; human IgG1 Fc, knob-into-hole, PGLALA; also called P033.078 in CEACAM5-TCB format
For the molecule B1, the “fold higher binding half-life than CD3orig” value in [1] is more than 3 fold. In addition, in assay [2], the “EC50 24 h (pM), T-cell mediated lysis of CEACAM5-expressing LS180 tumor cells” value was 58 pM and the “EC50 48 h (pM), T-cell mediated lysis of CEACAM5-expressing LS180 tumor cells” value was 36.1 pM. Besides, in assay [3], the “binding activity [%] after 2 weeks at pH 6.0/40°C” value came out at 101% and the “binding activity [%] after 2 weeks at pH 7.4/37°C” value came out at 99%. Also, in assay [4], the affinity, expressed as Kd, was 0.562 nM; the dissociation rate constant (koff) (usually the first-order rate constant of dissociation) turned out to be 0.000886 s⁻¹; the kon – broadly, a measure of how fast the partners come together – is 1.59e+06 M⁻¹ s⁻¹; the t1/2 turned out to be 13 min. Also, in assay [5], binding was characterised by a dissociation constant (Kd) of 0.324 nM, the dissociation rate constant (koff) is 0.000675 s⁻¹, the kon was 2.08e+06 M⁻¹ s⁻¹ and the t1/2 was 17.1 min.

B2: TYRP1-TCB with anti-CD3 antibody clone P033.078 (bispecific antibody, human IgG1, kappa, L234A L235A)
heavy 1: not shown
heavy 2: QVQLVQSGAEVKKPGASVKVSCKASGFNIKDYFLHWVRQAPGQGLEWMGWINPDNGNTVYAQKFQGRVTMTADTSTSTVYMELSSLRSEDTAVYYCTRRDYTYEKAALDYWGQGTLVTVSSASTKGPSVFPLAPSSKSTSGGTAALGCLVEDYFPEPVTVSWNSGALTSGVHTFPAVLQSSGLYSLSSVVTVPSSSLGTQTYICNVNHKPSNTKVDEKVEPKSCDKTHTCPPCPAPEAAGGPSVFLFPPKPKDTLMISRTPEVTCVVVDVSHEDPEVKFNWYVDGVEVHNAKTKPREEQYNSTYRVVSVLTVLHQDWLNGKEYKCKVSNKALGAPIEKTISKAKGQPREPQVCTLPPSRDELTKNQVSLSCAVKGFYPSDIAVEWESNGQPENNYKTTPPVLDSDGSFFLVSKLTVDKSRWQQGNVFSCSVMHEALHNHYTQKSLSLSP
light 1: DIQMTQSPSSLSASVGDRVTITCRASGNIYNYLAWYQQKPGKVPKLLIYDAKTLADGVPSRFSGSGSGTDFTLTISSLQPEDVATYYCQHFWSLPFTFGQGTKLEIKRTVAAPSVFIFPPSDRKLKSGTASVVCLLNNFYPREAKVQWKVDNALQSGNSQESVTEQDSKDSTYSLSSTLTLSKADYEKHKVYACEVTHQGLSSPVTKSFNRGEC
light 2: EVQLLESGGGLVQPGGSLRLSCAASGFTFESYAMNWVRQAPGKGLEWVSRIRSKYNEYATYYADSVKGRFTISRDDSKNTLYLQMNSLRAEDTAVYYCVRASNFPSSFVSYFGYWGQGTLVTVSSASVAAPSVFIFPPSDEQLKSGTASVVCLLNNFYPREAKVQWKVDNALQSGNSQESVTEQDSKDSTYSLSSTLTLSKADYEKHKVYACEVTHQGLSSPVTKSFNRGEC
notes: human IgG1 Fc, knob-into-hole, P329G L234A L235A; also called P033.078 in TCB format
Regarding B2, the “fold higher binding half-life than CD3orig” value in [1] is not above 6 fold. In assay [6], the “binding activity [%] after 2 weeks at pH 6.0/40°C” value turned out to be 99% and the “binding activity [%] after 2 weeks at pH 7.4/37°C” value was 99%. In addition, in assay [7], the Kd (as a rule, the free concentration of one partner at which half of the binding sites on the other are occupied at equilibrium, for simple one-to-one binding) worked out at 0.6 nM; the koff came out at 0.000996 s⁻¹; the kon came to 1.66e+06 M⁻¹ s⁻¹; the t1/2 was found to be 11.6 min. In assay [8], this molecule displayed a dissociation constant (Kd) of 0.37 nM, a dissociation rate constant (koff) of 0.000802 s⁻¹, an on-rate constant (kon) of 2.2e+06 M⁻¹ s⁻¹ and a t1/2 of 14.4 min.

B3: anti-CD3 antibody clone P033.078 in monovalent IgG format (antibody)
heavy: not shown
chain: DKTHTCPPCPAPEAAGGPSVFLFPPKPKDTLMISRTPEVTCVVVDVSHEDPEVKFNWYVDGVEVHNAKTKPREEQYNSTYRVVSVLTVLHQDWLNGKEYKCKVSNKALGAPIEKTISKAKGQPREPQVCTLPPSRDELTKNQVSLSCAVKGFYPSDIAVEWESNGQPENNYKTTPPVLDSDGSFFLVSKLTVDKSRWQQGNVFSCSVMHEALHNHYTQKSLSLSP
light: EVQLLESGGGLVQPGGSLRLSCAASGFTFESYAMNWVRQAPGKGLEWVSRIRSKYNEYATYYADSVKGRFTISRDDSKNTLYLQMNSLRAEDTAVYYCVRASNFPSSFVSYFGYWGQGTLVTVSSASVAAPSVFIFPPSDEQLKSGTASVVCLLNNFYPREAKVQWKVDNALQSGNSQESVTEQDSKDSTYSLSSTLTLSKADYEKHKVYACEVTHQGLSSPVTKSFNRGEC
notes: also called monovalent IgG P033.078
B3: in assay [9], the “binding activity [%] after 2 weeks at pH 6.0/40°C” value amounted to 98% and the “binding activity [%] after 2 weeks at pH 7.4/37°C” value was 95%. For the same molecule, the “fold higher binding half-life than CD3orig” value in assay [10] is more than 2 fold. Besides, in assay [11], the dissociation constant (Kd) stood at 0.771 nM, the off-rate (koff) was 0.00133 s⁻¹, the kon was 1.73e+06 M⁻¹ s⁻¹ and the t1/2 turned out to be 8.69 min. Further, in assay [12], the Kd came to 0.403 nM, the off-rate constant (koff) was 0.00104 s⁻¹, the kon came to 2.6e+06 M⁻¹ s⁻¹ and the t1/2 came out at 11.1 min.
